Source: US20220062371A1 (DEBIOPHARM RESEARCH AND MANUFACTURING S A, published 2022)
Non-standard residues stand in square brackets, D forms with d. Groups on a side chain read outwards from the residue. Primed or numbered codes have the meaning given here. No end group written: not given here. *: point of attachment. OCPT = camptothecin (CPT) attached as an ester, CC[C@@]1(O*)C(=O)OCc2c1cc1n(c2=O)Cc2cc3ccccc3nc2-1; Propanoyl(3-maleimido) = O=C1C=CC(=O)N1CCC(=O)*; PEG4′ = tetraethylene glycol; Dab = NCC[C@H](N)C(=O)O; CO′ = not defined here; Dap = NC[C@H](N)C(=O)O; CPT = Camptothecin; AF = auristatin F; Sar = CNCC(=O)O

B1: Compound 19, AF-Cit-Lys(PEG4-Mal-Cys-Ac)-Phe-OH (peptide)
peptide: XKF
modifications: X at position 1 is citrulline (Cit); N-terminus acylated with auristatin F (AF); Lys 2 side chain carries PEG4-Mal-Cys-Ac
B2: Compound 1, AF-Arg-Lys(PEG4-Mal-Cys-Ac)-Phe-OH (peptide)
peptide: RKF
modifications: N-terminus acylated with auristatin F (AF); Lys 2 side chain carries PEG4-Mal-Cys-Ac
B3: Compound 23, DM1-Mcc-Cit-Lys(PEG5-Ma-Cys-Ac)-Tyr-OH (peptide)
peptide: XKY
modifications: X at position 1 is citrulline (Cit); DM1-Mcc on the N-terminus; Lys 2 side chain carries PEG5-Ma-Cys-Ac
B4: Compound 3, AF-Arg-Phe-Lys(PEG4-Mal-Cys-Ac)-OH (peptide)
peptide: RFK
modifications: N-terminus acylated with auristatin F (AF); Lys 3 side chain carries PEG4-Mal-Cys-Ac

Biological target: T1, Recombinant human Cathepsin B (human, UniProt P07858 80-333)
Test: cell-based or functional assay

In the case of XKFKF (AF at the N-terminus; citrulline (Cit); Lys(Mal-DM1); Lys(PEG4-Mal-Cys-Ac)) [Compound 31, AF-Cit-Lys(Mal-DM1)-Phe-Lys(PEG4-Mal-Cys-Ac)-Phe-OH], the “Ratio (T1/2 Compound/T1/2 Reference)” value is reported as 0.08.

Biological target: T1, Recombinant human Cathepsin B
Test: cell-based or functional assay
Remark: another data set of the same source

Compared with B1, B2 is higher in “Ratio (T1/2 Compound/T1/2 Reference)” value: 0.09 for the first, 0.12 for the second.

Going from FXKY (DM1-Mcc on the N-terminus of Phe; citrulline (Cit); Lys(PEG5-Ma-Cys-Ac)) [Compound 22, DM1-Mcc-Phe-Cit-Lys(PEG5-Ma-Cys-Ac)-Tyr-OH] to FXFK (DM1-Mal on the N-terminus of Phe; citrulline (Cit); Lys(PEG4-Mal-Cys-Ac)) [Compound 7, DM1-Mal-Phe-Cit-Phe-Lys(PEG4-Mal-Cys-Ac)-OH], the “Ratio (T1/2 Compound/T1/2 Reference)” value rises from 0.005 to 0.09.

Going from B3 to B4, the “Ratio (T1/2 Compound/T1/2 Reference)” value rises from 4e-05 to 0.11.

First: FKKF (DM1-Mal on the N-terminus of Phe; Lys(PEG4-Mal-Cys-Ac)) [Compound 5, DM1-Mal-Phe-Lys-Lys(PEG4-Mal-Cys-Ac)-Phe-OH]
Second: FXKF (DM1-Mal on the N-terminus of Phe; citrulline (Cit); Lys(PEG4-Mal-Cys-Ac)) [Compound 6, DM1-Mal-Phe-Cit-Lys(PEG4-Mal-Cys-Ac)-Phe-OH]
The “Ratio (T1/2 Compound/T1/2 Reference)” value of the first is higher: 0.05 for the first, 0.02 for the second.

Biological target: T1, Recombinant human Cathepsin B
Test: cell-based or functional assay
Remark: another data set of the same source

Compared with R[PEG4′]FR[Dab](CO‑CPT)F-OH [Compound 10, Arg-PEG4-Phe-Arg-Dab(CO-CPT)-Phe-OH], R[PEG4′]FRE([Sar-OCPT])F-OH [Compound 8, Arg-PEG4-Phe-Arg-Glu(Sar-OCPT)-Phe-OH] is higher in “Ratio (T1/2 Compound/T1/2 Reference)” value: 0.1 for the first, 0.19 for the second.

Going from FKKF (Ac-Cys-Mal-PEG4 at the N-terminus; Lys(Mal-DM1)) [Compound 12, Ac-Cys-Mal-PEG4-Phe-Lys-Lys(Mal-DM1)-Phe-OH] to FXKY (Ac-Cys-Ma-PEG5 at the N-terminus; citrulline (Cit); Lys(Mcc-DM1)) [Compound 27, Ac-Cys-Ma-PEG5-Phe-Cit-Lys(Mcc-DM1)-Tyr-OH], the “Ratio (T1/2 Compound/T1/2 Reference)” value falls from 0.14 to 0.005.

Compared with R[PEG4′]FRS([CO′-CPT])F-OH [Compound 11, Arg-PEG4-Phe-Arg-Ser(CO-CPT)-Phe-OH], R[PEG4′]FR[Dap](CO‑CPT)F-OH [Compound 9, Arg-PEG4-Phe-Arg-Dap(CO-CPT)-Phe-OH] is higher in “Ratio (T1/2 Compound/T1/2 Reference)” value: 0.2 for the first, 0.63 for the second.

Going from {Ac-Cys-Propanoyl(3-maleimido)-PEG4′}-FKK(AF)F-OH [Compound 13, Ac-Cys-Mal-PEG4-Phe-Lys-Lys(AF)-Phe-OH] to FKKFFK (Ac-Cys-Mal-PEG4 at the N-terminus; Lys(Mal-DM1)) [Compound 28, Ac-Cys-Mal-PEG4-Phe-Lys-Lys(Mal-DM1)-Phe-Phe-Lys-OH], the “Ratio (T1/2 Compound/T1/2 Reference)” value falls from 0.15 to 0.03.

Biological target: T1, Recombinant human Cathepsin B
Test: cell-based or functional assay
Remark: another data set of the same source

First: FKKFFKKF (Ac-Cys-Mal-PEG4 at the N-terminus; two Lys(Mal-DM1)) [Compound 29, Ac-Cys-Mal-PEG4-[Phe-Lys-Lys(Mal-DM1)-Phe]2-OH]
Second: FRKRKF (Ac-Cys-Mal-PEG4 at the N-terminus; Lys(Mal-DM1); Lys(AF)) [Compound 30, Ac-Cys-Mal-PEG4-Phe-Arg-Lys(Mal-DM1)-Arg-Lys(AF)-Phe-OH]
The “Ratio (T1/2 Compound/T1/2 Reference)” value of the first is higher: 0.23 for the first, 0.07 for the second.
